Literature values as cited in paper PMC3131494.

Molecular target: eNOS (UniProt P29474)
Sequence of UniProt P29474 (P29474 2-1203): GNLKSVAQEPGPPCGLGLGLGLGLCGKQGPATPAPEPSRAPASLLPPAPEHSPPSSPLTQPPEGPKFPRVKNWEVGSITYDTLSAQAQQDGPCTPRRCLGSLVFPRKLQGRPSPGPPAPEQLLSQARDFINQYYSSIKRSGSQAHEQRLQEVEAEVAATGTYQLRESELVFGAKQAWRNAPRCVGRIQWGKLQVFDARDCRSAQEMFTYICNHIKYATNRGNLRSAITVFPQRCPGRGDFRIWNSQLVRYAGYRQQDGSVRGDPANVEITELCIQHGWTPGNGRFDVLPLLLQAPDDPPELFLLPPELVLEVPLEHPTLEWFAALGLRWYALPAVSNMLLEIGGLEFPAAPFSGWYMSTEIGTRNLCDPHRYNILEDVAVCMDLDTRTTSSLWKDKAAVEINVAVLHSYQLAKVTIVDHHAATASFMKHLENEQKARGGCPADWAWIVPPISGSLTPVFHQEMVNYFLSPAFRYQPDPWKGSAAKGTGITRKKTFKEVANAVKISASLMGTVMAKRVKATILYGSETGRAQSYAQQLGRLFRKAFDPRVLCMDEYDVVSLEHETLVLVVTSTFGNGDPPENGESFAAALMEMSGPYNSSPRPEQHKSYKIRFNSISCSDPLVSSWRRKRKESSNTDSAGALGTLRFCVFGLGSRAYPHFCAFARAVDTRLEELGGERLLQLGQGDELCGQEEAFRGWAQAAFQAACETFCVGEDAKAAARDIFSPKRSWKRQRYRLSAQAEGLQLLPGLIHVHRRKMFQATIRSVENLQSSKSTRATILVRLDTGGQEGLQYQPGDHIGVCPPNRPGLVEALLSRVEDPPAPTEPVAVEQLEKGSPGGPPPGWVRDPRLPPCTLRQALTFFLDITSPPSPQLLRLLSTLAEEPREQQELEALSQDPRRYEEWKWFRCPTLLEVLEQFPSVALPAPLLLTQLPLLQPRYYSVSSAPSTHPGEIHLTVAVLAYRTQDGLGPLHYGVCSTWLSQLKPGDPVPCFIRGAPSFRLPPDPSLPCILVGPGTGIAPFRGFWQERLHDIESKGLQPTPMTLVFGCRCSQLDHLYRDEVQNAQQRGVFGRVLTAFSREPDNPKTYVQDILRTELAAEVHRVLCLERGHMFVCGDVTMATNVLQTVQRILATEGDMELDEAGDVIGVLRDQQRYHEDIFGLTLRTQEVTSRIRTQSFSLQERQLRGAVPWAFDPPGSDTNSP

dynamin (from UniProt P50570)
Kd: 30 nM
